We go through 1 substance from article doi:10.1101/2020.12.03.409334.

This experiment addresses 4R1N tau::mCherry::Cry2Olig chimera (UniProt P10636). The experiment can be described thus: native gel or EMSA.

As usually defined, the stoichiometry N is a count of units in the complex or per binding partner. Turning to “4R1N tau::mCherry::Cry2Olig chimera (from UniProt P10636-7 1-412)”, the stoichiometry N stood at 2.
